Source: US20240287547, “GENETIC MODIFICATION” (Peter Biotherapeutics, Inc., published 2024)

What was measured:
Assay in all cases: cell_activity; U937 RT-PCR; also edits KRAS in HEK293
[1] = biological target: pb76 DLRRR (7-zinc finger array + triple R element) (artificial)
Text: (§1) As described above, each plasmid, pb74, pb75, and pb76 was introduced into U937 cells by electroporation. A “no DNA” transfection was used as control. […] post electroporation, cells transfected with these plasmids were detached and collected. Total RNAs from each condition were then extracted by using Trizol reagent. Five hundred nanograms of total RNA was then converted into DNA by reverse transcription (RT) reaction, followed by PCR using a primer set of Pop133 (SEQ ID. NO. 228) and Pop134 (SEQ ID. NO. 229). Three independent experiments were conducted. KRAS mRNA expression was quantitated by calculations of amplification band intensity of RT-PCR KRAS normalized by corresponding that of Ref-BMG using Bio-Rad Imagelab software. Introduction of pb74 (DLR), ob75 (DLRR), and pb76 (DLRRR) inhibit KRAS gene expression more than 50%.

[2] = biological target: pb74 DLR (7-zinc finger array + single R element) (artificial)
Text: as §1

[3] = biological target: pb75 DLRR (7-zinc finger array + double R element) (artificial)
Text: as §1

Measured: activity

Sequence of pb76 DLRRR (7-zinc finger array + triple R element) (artificial) (chain, as listed by the source): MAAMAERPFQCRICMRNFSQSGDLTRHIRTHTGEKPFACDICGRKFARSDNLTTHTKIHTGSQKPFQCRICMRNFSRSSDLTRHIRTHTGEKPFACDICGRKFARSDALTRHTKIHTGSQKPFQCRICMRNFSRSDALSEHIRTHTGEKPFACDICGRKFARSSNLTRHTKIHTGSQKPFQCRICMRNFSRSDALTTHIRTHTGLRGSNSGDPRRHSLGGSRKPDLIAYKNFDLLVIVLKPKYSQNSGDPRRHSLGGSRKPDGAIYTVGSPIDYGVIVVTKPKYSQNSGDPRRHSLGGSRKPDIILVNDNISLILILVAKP
Sequence of pb75 DLRR (7-zinc finger array + double R element) (artificial) (chain, as listed by the source): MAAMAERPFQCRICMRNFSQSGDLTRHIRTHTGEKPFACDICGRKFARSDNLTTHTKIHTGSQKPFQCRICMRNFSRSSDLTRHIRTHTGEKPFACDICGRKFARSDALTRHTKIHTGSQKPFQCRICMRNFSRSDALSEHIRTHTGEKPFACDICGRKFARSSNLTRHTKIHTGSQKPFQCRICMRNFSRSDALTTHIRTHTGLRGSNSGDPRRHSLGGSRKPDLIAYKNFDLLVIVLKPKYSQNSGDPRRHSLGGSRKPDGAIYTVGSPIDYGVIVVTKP
Sequence of pb74 DLR (7-zinc finger array + single R element) (artificial) (chain, as listed by the source): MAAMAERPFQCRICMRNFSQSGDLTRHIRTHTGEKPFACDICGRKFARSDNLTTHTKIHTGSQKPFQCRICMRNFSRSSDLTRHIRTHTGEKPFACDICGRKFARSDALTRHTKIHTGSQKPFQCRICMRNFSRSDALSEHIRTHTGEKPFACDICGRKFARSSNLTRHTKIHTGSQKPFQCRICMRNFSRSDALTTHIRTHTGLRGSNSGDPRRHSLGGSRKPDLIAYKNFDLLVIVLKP

B1: KRAS exon 1 site (dsDNA)
DNA 1: TTGGAGCTGGTGGCGTAGGCA
DNA 2: TGCCTACGCCACCAGCTCCAA
> 50 % inhibition of KRAS mRNA: all assays above
